Target: biotinylated avi-tagged SARS-CoV-2 (Wuhan) receptor binding domain (RBD) (SARS-CoV-2 (Wuhan strain), UniProt P0DTC2, biotin (avi-tagged RBD labeled with biotin, BirA500))
Test: BLI
Conditions: both partners purified

B1: REGN10987 (antibody, V domains shown)
VH: QVQLVESGGGVVQPGRSLRLSCAASGFTFSNYAMYWVRQAPGKGLEWVAVISYDGSNKYYADSVKGRFTISRDNSKNTLYLQMNSLRTEDTAVYYCASGSDYGDYLLVYWGQGTLVTVSS
VL: QSALTQPASVSGSPGQSITISCTGTSSDVGGYNYVSWYQQHPGKAPKLMIYDVSKRPSGVSNRFSGSKSGNTASLTISGLQSEDEADYYCNSLTSISTWVFGGGTKLTVL
notes: also called Imdevimab
binding result: binds

B2: REGN10933 (antibody, V domains shown)
VH: QVQLVESGGGLVKPGGSLRLSCAASGFTFSDYYMSWIRQAPGKGLEWVSYITYSGSTIYYADSVKGRFTISRDNAKSSLYLQMNSLRAEDTAVYYCARDRGTTMVPFDYWGQGTLVTVSS
VL: DIQMTQSPSSLSASVGDRVTITCQASQDITNYLNWYQQKPGKAPKLLIYAASNLETGVPSRFSGSGSGTDFTFTISGLQPEDIATYYCQQYDNLPLTFGGGTKVEIK
notes: also called Casirivimab
binding result: binds
